Results from paper PMC4917739.

Key:
[1] = biological target: BG505 SOSIP.664 trimer (HIV-1 strain BG505); assay: negative-stain electron microscopy
[2] = biological target: BG505 SOSIP.664 N88Q (HIV-1 strain BG505); assay: SPR
[3] = biological target: BG505 SOSIP.664 trimer (HIV-1 strain BG505); assay: SPR
[4] = biological target: single-chain BG505 SOSIP.664 trimer (HIV-1 strain BG505); assay: SPR

Fab VRC34.01
stoichiometry N [1]: 3 | Kd [2]: 19.9 nM | Kd [3]: 0.3 nM | Kd [4]: 272 nM
